Test system: Bacillus subtilis DB104 (SP-AmyQ fusion secretion)
Test: AmyQ secretion efficiency, weighted average sort bin (1 = best secretion, 10 = worst) (bin number (weighted average, 1-10)); higher = lower secretion efficiency
How it was run: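 The secretion score gives the average bin number weighted by read frequency and normalised to beads per bin, with low-abundance sequences excluded. Bins were 10 equally populated green/red fluorescence ratio fractions of occupied ~65 nL alginate beads, sorted by large-particle flow cytometry. The beads held fluorescein-starch and about 0.3 cells each of an amyE-integrated B. subtilis DB104 library fusing designed signal peptides to mature AmyQ, and they were grown about 13 h at room temperature and stained with nile red before sorting and Illumina sequencing.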

| Sequence | AmyQ secretion efficiency |
| --- | --- |
| MKRRKKKVLTGSVLSLGLLVSASPAFATSP | 1.34 |
| MKLAKRNFMISMVSALTPSTTLAITAKAKEL | 7.41 |
| MKKRKRRNFKRFIAAFLVLALMISLVPADVLAAKR | 5.17 |
| MIVIMSFNLIILLFISIIVFLSVIQPQPS | 6.9 |
| MKLAKRVSALTPSTTLAITAKRKEL | 8.52 |
| MRKKLKWLSFLLGFIILLFLFKYQFSFNDS | 6.3 |
| MTMLRKIIGWILLLCIIPLFAFTVIASDKEV | 7.16 |
| MRKKCKVCLWILVLLLSCLSGKSAYAATS | 2.26 |
| MFNRLFRVCFLAALIMAFTLPNSVYCQKP | 4.33 |
| MKKRLIAPMLLSAASLAFFAEEEEDEAQAAAY | 3.9 |
| MKKCRKSIKRFLVSLIIGTFVISVPFMANAQSD | 1.76 |
| MKSKGSIMACLILFSFTITTVTFINTETISAFSN | 5.25 |
| MSTKQVMLALTAAAGLGLTALHSAPAAKAAPL | 2.43 |
| MKKRLIGFLVLVPALIMIEANKK | 6.53 |
| MKVLLSALLLLLFAFEPSASVKKL | 6.34 |
| MKQFAITLSVLCALILLVPTLLVIPFFHNKEAGASV | 6.58 |
| MKKLLALLAVVAFAFTDSSKAKAAEA | 2.03 |
| MKKTIMSFVAVAALSTTAFGAHASAATK | 3.57 |
| MKRIRIPMTLALGAALTIAPLSFASVEEN | 6.71 |
| MKLAKRGKSYYPYTSLAITAKAKEL | 8.51 |
| MKMKSGMEQAVSVLLLLSRLPVQASITSE | 7.01 |
| MKLKKRFLVALTMCGGLFVTPAKAVKT | 7.15 |
| MKWMCSICCAAVLLAGGARQAEAV | 2.15 |
| MAIIIAIIAAVIVIAALITFNVRNYSPG | 7.13 |
| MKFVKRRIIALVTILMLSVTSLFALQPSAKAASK | 2.32 |
| MKKRRVLMAFIICLSLILSVLAAPPSGAKAESV | 1.87 |

| Sequence | AmyQ secretion efficiency |
| --- | --- |
| MKWMCSICCAAVLLAGGAVQAEAV | 2.89 |
| MLCVMMLLFSAIASFPVSAQAASR | 6.18 |
| MFRKLLSSLAISALSLGLLVSAPTASFAAES | 5.47 |
| MKRTWNVCLTALLSVLLVAGSVPFHMEAKKP | 2.19 |
| MKRRRQRQTTLPLLIVCLAFSSFSASARAASE | 3.83 |
| MKWYCSICCAAVLLAGGAAQAEAV | 2.63 |
| MRRVCFLAALIMAFTLPNSVYAQKP | 2.21 |
| MKKRLIAPMLLSAASLAFFAMVAVIAQAAAY | 5.95 |
| MYKKFVPRTQYSRLFFVSFEMMENPHALDY | 7.24 |
| MTKAFLVFLSVVLVTTVFLVKQQESVAQAKQL | 5.72 |
| MLTKRGRYYYRTLLGLIAWFPGAAQAEEK | 9.36 |
| MNLRKIKKSSALSLGMLVSAAPVLATSS | 5.42 |
| MKRKLLSSLAISALSLGLLVSAPTASFAASS | 1.56 |
| MSKLIMALVILGALGTSYISADSS | 7.07 |
| MFNRLFRVCFLAALIMAFTLPNSGYAQKP | 2.99 |
| MMIKQCTICLSLLVFGTTAAHAEET | 2.71 |
| MRIFKKAVFVIMISFLIARRRKKRAHAAID | 8.88 |
| MPIKKKVMMCLAVTLVFGSMSFPTLTNDGGFKE | 5.45 |
| MKSKGSIMACRRKRRRTITTFINTETISAFSN | 6.8 |
| MTKKAWFLPLVCVLLISGWLAPAASASHQTT | 2.01 |
| MTKRGIQAFAGGIYLTDEDQAAAV | 7.17 |
| MKRIRIPMTLRKKRALTIAPLSFASAEEN | 7.44 |
| MKNMSCKLVVSVTLFFSFLDEDPLAHAQNS | 2.75 |
| MKRLLSTLLIGIMLLTFAPSAFAKKR | 2.03 |
| MKKRKCLLFLTTIALILSLSTNAFAKNT | 1.8 |
| MKKTIMSFVAVAALSTTAFGAHASAKKR | 2.68 |

| Sequence | AmyQ secretion efficiency |
| --- | --- |
| MKKSQYFIVFICFFVLFSRRKHKRRAAAADS | 7.81 |
| MRMLWRSLALCGLALTLAPCAQAAKK | 2.93 |
| MRSYIKVLTMCFLGLILFVPTALPDNS | 7.02 |
| MRPVFPLKRSAVLFLSCFFGARQTEASASKR | 8.12 |
| MKLAKRVSALTPSTTLAITMKAKEL | 6.37 |
| MRKKTKNRLISSVLSTVVISSLLFPGAAGASEE | 2.7 |
| MGGSIILLLAVIIAAAAAGVAFYV | 7.67 |
| MRNLTKTSLLLAGLCTAAKKKFVTHASAEES | 8.31 |
| MKLAKRVSALTPSTTLAITAKAAPL | 8.19 |
| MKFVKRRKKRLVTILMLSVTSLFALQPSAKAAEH | 2.78 |
| MLTKRLLTIYIMLLGLIAWFPGASQAEEK | 4.32 |
| MNLRKIRRKKKKSLGMLVSAAPVLATSS | 7.69 |
| MSTIGLLFMLCLAALFTIGFPAQQADAAEA | 2.8 |
| MKKRFFGPIILAFILFTASTAFTAIAGAIAIPS | 4.73 |
| MTKKAWFLPLVCVLLISGWLAPAASSSAQTT | 3 |
| MKKGIIRTFFLLVSFVLFFALSTGITGVQAAPA | 2.73 |
| MKLWMRKTLVVLFTIVTFGLVSPPAALMMDKP | 2.97 |
| MKNMSCKLVVSVTLFFSFLTIGPLQHAQNS | 5.15 |
| MKKAAAVLLSLGLVFGFSYGAGHVAEADDD | 5.61 |
| MLKKIALTLCPAIVGSLLFFTAPASADEE | 3.58 |
| MTKKAWFLPLVCVLLISGWLAPAASASEQTT | 1.79 |
| MTKRGIQAFAGGIILATAVLAAVFYLTDEDQAAAR | 4.37 |
| MRFTKVVGFLSVLGLAAKKRKRRAQAEKA | 7.6 |
| MNFKKTVVSALSISALALSVSGVASAHTI | 3.63 |
| MKIRKILLSSALSFGMLEDDDEDALAAGT | 5.74 |
| MKKKQVMLALTAAAGLGLTALHSAPAKKAAPL | 5.87 |

| Sequence | AmyQ secretion efficiency |
| --- | --- |
| MKKAFLVFLSVVLVTTVFLVKQQESVPQAKQL | 7.73 |
| MKKAAAVLLSLGLVFGFSYGAGHVAEKKTK | 6.23 |
| MKKVLMAFIICLSVLAAPPSGAKAESV | 2.14 |
| MKLKKRVSMFLVALTMCGGLFVTPSFPPTAPAKAVKT | 5.25 |
| MNKPTKLFSTLALAAGMTKRRAGGAGTIHAQQP | 5.85 |
| MRIFKKAVFVIMISFLIATVNVNTAHAAEE | 1.56 |
| MKKVLMAFIICLSLILSVLAAPPSGAKSESV | 3.92 |
| MKLAKRVSALTPSTTLAITAKNKEL | 8.25 |
| MKKIVSILFMFGLVMGFSQFQPSTVFGADK | 4.23 |
| MLKKIALTLCPAIVGSLLFFTAPASAHVK | 2.44 |
| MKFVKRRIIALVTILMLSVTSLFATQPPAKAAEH | 2.78 |
| MRKKCSVCRRKKVLLLSCLSGKSAYAATS | 7.48 |
| MRSYIKVLTMCFLGLILFVPTTLADNS | 1.67 |
| MRRRWRSLALCGLALTLAPCAQAAEP | 2.05 |
| MKRSISIFITCLLITLLTMGGMIASPASEAGT | 4.1 |
| MKRSIMLSNIIILLVSLRVWMVFLMNWVTPDRKTAAAAVY | 6.91 |
| MKRFILVLSFLSIIVAYPIQVNASPM | 3.06 |
| MNFKKTVVSALSISALALEPSGVASAHEI | 2.95 |
| MKWMCSICCAAVLLAGGAKQAEAV | 2.68 |
| MRMLWRSLALCGLALTLAPCAQAATP | 2.06 |
| MIQKRKRTVSFRLVLMCTLLFVSLPITKTSAVNG [wt_amyQ] | 1.16 |
| MKVLLSALLLLLFAFEPSASPKKL | 2.66 |
| MKVPKTMLLSTAAGLLLSLTATSRSAHYV | 6.25 |
| MHLIRAAGAVCLAVVLIAGCRFNEDQHQAEWENT | 6.12 |
| MKRTTNLTMLCLWFTVFSLFLVLLPGKALGAVD | 4.04 |
| MTMLRKNMSIIGWILLLCIIPLFAFTVIASGKEV | 5.45 |

| Sequence | AmyQ secretion efficiency |
| --- | --- |
| MKKKRALTLCPAIVGSLLFFTAPASAHVS | 3.92 |
| MKRFSTAYLLLGILCSAAVFLIGAPSSALGAEV | 3.5 |
| MIAYFGKCLLLVTIMFLGVLFGMPQANHG | 5 |
| MPYLKRVLLLLVTGLFMSLFAVTATASFQTG | 2.53 |
| MITTIVITCVMAASLTLGSLLPAGYASAKED | 4.06 |
| MPYLKRVLLLLVTGLAVTATASAQTG | 1.97 |
| MPIFKKVMMCLAVTLVFGSMSFPTLTNSGGFKE | 6.15 |
| MKKAAAVLLSLGLVFDESYGAGHVAEAKTK | 2.18 |
| MTKLKMLSMLRKKKRRLFIFSSQALAVQY | 6.63 |
| MKWMCSICCAAVLLAGTVFLLGAAQAEAV | 3.59 |
| MKSLPYTIALLFCGLIIVSMAAKGHST [wt_52] | 6.6 |
| MKQCQKSRKRRRQFLVSLIIGTFVISVPFMANAQSD | 1.71 |
| MKLKKRVSMFLVALTMCGGLFVITVFTAVFTPAKAVKT | 7.26 |
| MRSYIKVLTMCFLGLILFVPTALFDNS | 7.14 |
| MKMKSGMEQAVSVLLLLSRLPASLTSE | 3.77 |
| MFKKHTISLLIIFLLASAVLAKPIEGHTV | 3.78 |
| MLKKIALTLCPAIVGSLLFFTAPRSAHVS | 5.22 |
| MKKWIYVVLVLSIAGIGGFSVHMASS | 5.57 |
| MKKAAAVLLSLGLVFGFSYGAGHVVEAKTK | 2.99 |
| MLTKRLLTIYIMLLGLIAWFPGAIQAEEK | 2.08 |
| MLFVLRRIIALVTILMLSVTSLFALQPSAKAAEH | 1.93 |
| MFNRLFRVCFLAALIMAFTLPNSVYRQKP | 7.13 |
| MRKKRVITCVMAASLTLGSLLPAGYATAATP | 2.04 |
